# Substrate: C/C(=C\CNc1ncnc2[nH]cnc12)CO
# Assay: purified protein
# Details: FAD
protein,measurement,value
ZmCKX1 (cytokinin oxidase/dehydrogenase) (Zea mays) (protein) LAAGTPALGDDRGRPWPASLAALALDGKLRTDSNATAAASTDFGNITSALPAAVLYPSSTGDLVALLSAANSTPGWPYTIAFRGRGHSLMGQAFAPGGVVVNMASLGDAAAPPRINVSADGRYVDAGGEQVWIDVLRASLARGVAPRSWNDYLYLTVGGTLSNAGISGQAFRHGPQISNVLEMDVITGHGEMVTCSKQLNADLFDAVLGGLGQFGVITRARIAVEPAPARARWVRFVYTDFAAFSADQERLTAPRPGGGGASFGPMSYVEGSVFVNQSLATDLANTGFFTDADVARIVALAGERNATTVYSIEATLNYDNATAAAAAVDQELASVLGTLSYVEGFAFQRDVAYAAFLDRVHGEEVALNKLGLWRVPHPWLNMFVPRSRIADFDRGVFKGILQGTDIVGPLIVYPLNKSMWDDGMSAATPSEDVFYAVSLLFSSVAPNDLARLQEQNRRILRFCDLAGIQYKTYLARHTDRSDWVRHFGAAKWNRFVEMKNKYDPKRLLSPGQDIFN,Km,6.8 ± 1.3 µM

# From paper PMC10610038, “New Insights into the Enhancement of Adventitious Root Formation Using N,N′-Bis(2,3-methylenedioxyphenyl)urea” (Plants, 2023)
